Laboratory results from US20170009259A1 (SUMITOMO RUBBER INDUSTRIES, published 2017).

T1: Hevea rubber transferase 2 (HRT2), cis-prenyltransferase from Hevea brasiliensis (Hevea brasiliensis, UniProt Q8W3U4 1-284)
T1 construct: In the yeast two-hybrid assay it was expressed from the pPR3-N prey vector (pPR-HRT2) or the pBT3-SUC bait vector (pBT-HRT2); also called CPT; pPR-HRT2
T1 sequence: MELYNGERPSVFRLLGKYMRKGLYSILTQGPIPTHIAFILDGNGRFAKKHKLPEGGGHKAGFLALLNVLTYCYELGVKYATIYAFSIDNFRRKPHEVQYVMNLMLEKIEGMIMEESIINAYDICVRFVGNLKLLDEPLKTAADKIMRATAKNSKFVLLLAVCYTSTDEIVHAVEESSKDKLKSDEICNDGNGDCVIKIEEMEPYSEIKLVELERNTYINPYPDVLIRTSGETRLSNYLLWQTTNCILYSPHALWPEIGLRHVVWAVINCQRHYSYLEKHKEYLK

B1: Nogo-B receptor (NgBr) from Hevea brasiliensis (receptor)
chain: MDLKPGAGGQRVNRLVDPISYHFLQFLWRTLHLLVSLWYLQVSMVQMIEGFLISSGLVKRYGALDIDKVRYLAIVVDSEEAYQISKVIQLLKWVEDMGVKHLCLYDSKGVLKTNKKTIMESLNNAMPFEEAVEKDVLLDQKQMTVEFASSSDGKEAITRAANVLFMKYLKYAKTGVGKEEPCFTEDQMDEALKAIGYKGPEPDLLLIYGPVRCHLGFSPWRLRYTEMVHMGPLRYMNLGSLKKAIHRFTTVQQNYGT
notes: In the yeast two-hybrid assay it was expressed from the pBT3-SUC bait vector (pBT-NgBr); also called pBT-NgBr

Columns and labels:
[1] = target: T1, Hevea rubber transferase 2 (HRT2), …; assay: yeast two-hybrid, pPR-HRT2 prey with pBT-NgBr bait (pair No. 9), growth on Trp-, Leu-, Ade- and His-deficient SD medium
Experimental: (§1) The yeast strain NMY-51 was transformed with the collected plasmids. The PEG method was used for the double transformation of the yeast. The transformant cells were cultured at 30° C. for three days on Trp- and Leu-deficient SD medium for screening.
(§2) In this experiment, the yeast can grow on the selective medium only when a protein encoded by the gene introduced in the bait plasmid interacts with a protein encoded by the gene introduced in the prey plasmid.

[2] = target: T1, Hevea rubber transferase 2 (HRT2), …; assay: yeast two-hybrid, pPR-HRT1 prey with pBT-HRT2 bait (pair No. 6), growth on Trp-, Leu-, Ade- and His-deficient SD medium
Experimental: as §1, §2

[3] = target: B1; assay: yeast two-hybrid, pPR-HRT1 prey with pBT-NgBr bait (pair No. 5), growth on Trp-, Leu-, Ade- and His-deficient SD medium
Experimental: as §1, §2

Row | Binder | binding result [1] | binding result [2] | binding result [3]
1 | B1 | no binding | – | –
2 | Hevea rubber transferase 1 (HRT1), cis-prenyltransferase from Hevea brasiliensis (enzyme, In the yeast two-hybrid assay it was expressed from the pPR3-N prey vector (pPR-HRT1) or the pBT3-SUC bait vector (pBT-HRT1); also called CPT; pPR-HRT1) MELYNGERPSVFRLLGKYMRKGLYSILTQGPIPTHIAFILDGNRRFAKKHKLPEGGGHKAGFLALLNVLTYCYELGVKYATIYAFSIDNFRRKPHEVQYVMDLMLEKIEGMIMEESIINAYDICVRFVGNLKLLSEPVKTAADKIMRATANNSKCVLLIAVCYTSTDEIVHAVEESSELNSNEVCNNQELEEANATGSGTVIQIENMESYSGIKLVDLEKNTYINPYPDVLIRTSGETRLSNYLLWQTTNCILYSPHALWPEIGLRHVVWAVINFQRHYSYLEKHKEYLK | – | no binding | binds
